Measured values taken from patent publication US20220227811A1.
“And” between values parts separate entries of the source, which are not always exact repeats. Equal values may be shown once. Starred links: 1 amine or outer side, 2 acyl side, 3 side chain; linkers in the order of their positions; H or OH if unused. Positions of bridges follow the written chain, without caps; N, C: chain ends. Non-standard residues stand in square brackets, D forms with d. Chains are numbered I, II in the order given. No end group written: not given here. *: point of attachment. TATA = O=C(CC[*:1])N1CN(C(=O)CC[*:2])CN(C(=O)CC[*:3])C1; d1Nal = N[C@H](Cc1cccc2ccccc12)C(=O)O; Hyp = O=C(O)[C@@H]1C[C@@H](O)CN1; hArg = N=C(N)NCCCC[C@H](N)C(=O)O; tBuAla = CC(C)(C)C[C@H](N)C(=O)O; Nle = CCCC[C@H](N)C(=O)O; Pent4ynoyl = C#CCCC(=O)*

Key:
[1] = molecular target: Recombinant human CD137 (R&D systems) (human), Q07011; assay: SPR (Biacore), biotinylated human CD137 captured on a streptavidin chip, BCY13272 as analyte, 1:1 fit (Scrubber)
Recombinant human CD137 (R&D systems) (human), Q07011, sequence (Q07011 24-186 limits assumed): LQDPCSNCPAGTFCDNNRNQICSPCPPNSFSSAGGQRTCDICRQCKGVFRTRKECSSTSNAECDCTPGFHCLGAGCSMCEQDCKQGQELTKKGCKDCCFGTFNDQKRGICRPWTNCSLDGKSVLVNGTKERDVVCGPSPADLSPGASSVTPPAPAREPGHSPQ

[2] = molecular target: CD137 on Jurkat reporter cells (Promega CD137 luciferase reporter assay, kit CS196005), Q07011; assay: cell-based or functional assay
CD137 on Jurkat reporter cells (Promega CD137 luciferase reporter assay, kit CS196005), Q07011, sequence (Q07011 24-255 limits assumed): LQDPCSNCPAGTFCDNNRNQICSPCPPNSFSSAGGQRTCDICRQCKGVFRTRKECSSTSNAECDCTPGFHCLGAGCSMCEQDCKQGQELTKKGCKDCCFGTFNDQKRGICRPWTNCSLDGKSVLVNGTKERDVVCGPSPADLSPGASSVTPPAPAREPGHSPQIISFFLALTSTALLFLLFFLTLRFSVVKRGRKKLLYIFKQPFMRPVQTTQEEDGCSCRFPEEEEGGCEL

[3] = molecular target: CD137 on human PBMCs (anti-CD3 stimulated, co-culture assay) (human), Q07011; assay: cell-based or functional assay
CD137 on human PBMCs (anti-CD3 stimulated, co-culture assay) (human), Q07011, sequence (Q07011 24-255): as the sequence (Q07011 24-255 limits assumed) above

[4] = molecular target: human EphA2 protein (human), P29317; assay: SPR (Biacore), biotinylated human EphA2 captured on a streptavidin chip, BCY13272 as analyte, 1:1 fit (Scrubber)
human EphA2 protein (human), P29317, sequence (P29317 25-534 limits assumed): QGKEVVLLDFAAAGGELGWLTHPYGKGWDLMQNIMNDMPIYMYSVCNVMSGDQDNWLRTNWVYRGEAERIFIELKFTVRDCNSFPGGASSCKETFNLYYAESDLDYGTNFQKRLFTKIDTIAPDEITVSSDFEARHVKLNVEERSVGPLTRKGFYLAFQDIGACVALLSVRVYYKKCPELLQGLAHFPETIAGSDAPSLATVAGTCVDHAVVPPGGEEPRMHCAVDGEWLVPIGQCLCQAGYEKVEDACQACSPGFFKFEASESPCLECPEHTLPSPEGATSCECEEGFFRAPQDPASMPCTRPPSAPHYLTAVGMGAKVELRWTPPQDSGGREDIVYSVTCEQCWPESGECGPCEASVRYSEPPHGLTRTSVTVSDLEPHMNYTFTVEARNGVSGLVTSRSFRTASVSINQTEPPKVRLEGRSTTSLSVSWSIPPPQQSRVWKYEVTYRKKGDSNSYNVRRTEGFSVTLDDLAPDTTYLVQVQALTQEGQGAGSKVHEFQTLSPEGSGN

[5] = molecular target: human EphA2 protein (human), P29317; assay: SPR (Biacore T200), biotinylated EphA2 captured on a streptavidin chip, peptide as analyte, 1:1 fit

Kd [1]: < 33.1 pM
koff [1]: < 1e-05 s⁻¹
kon [1]: 302000 M⁻¹ s⁻¹
EC50 (nM), CD137 luciferase reporter assay, co-culture with EphA2 cell line A549 [2]: 0.107 nM and 0.132 nM and 0.147 nM
EC50 (nM), CD137 luciferase reporter assay, co-culture with EphA2 cell line HT-29 [2]: 0.567 nM and 0.187 nM and 0.205 nM
EC50 (nM), CD137 luciferase reporter assay, co-culture with EphA2 cell line PC-3 [2]: 0.245 nM and 0.0805 nM and 0.0898 nM
Emax (fold induction over background), CD137 luciferase reporter assay, co-culture with EphA2 cell line A549 [2]: 23.6 fold and 30.2 fold and 25.7 fold
Emax (fold induction over background), CD137 luciferase reporter assay, co-culture with EphA2 cell line HT-29 [2]: 36.5 fold and 26 fold and 36.4 fold
Emax (fold induction over background), CD137 luciferase reporter assay, co-culture with EphA2 cell line PC-3 [2]: 44.5 fold and 44.2 fold and 53 fold
Geo mean EC50/cell line, CD137 luciferase reporter assay, co-culture with EphA2 cell line A549 [2]: 127 pM
Geo mean EC50/cell line, CD137 luciferase reporter assay, co-culture with EphA2 cell line HT-29 [2]: 279 pM
Geo mean EC50/cell line, CD137 luciferase reporter assay, co-culture with EphA2 cell line PC-3 [2]: 117 pM
EC50 (nM) of IL-2 cytokine secretion, human PBMC co-culture with HT-1080 cells (N = 4) [3]: 0.55 nM
EC50 (nM) of IL-2 cytokine secretion, human PBMC co-culture with MC38 cells (N = 5) [3]: 0.79 nM
koff [4]: 0.00102 s⁻¹
kon [4]: 502000 M⁻¹ s⁻¹
Kd [5]: 2000 pM
B1: EphA2/CD137 heterotandem bicyclic peptide complex BCY13272 (peptide)
peptide 1: A[hArg]DC[Hyp]LVNPLCLEP[d1Nal]WTC
peptide 2: Ac-C[tBuAla]PE[dK](Pent4ynoyl)PYCFADPY[Nle]CA
modifications: linker I:4-I:11-I:18, II:1-II:8-II:15 via TATA; not fully specified (N-terminus, bridges); also: chain 1 N-terminus coupled to N-(acid-PEG3)-N-bis(PEG3-azide) linker, D-Lys(PYA) of chain 2 clicked (triazole) to linker azide arm, complex has a second BCY8928 copy not listed as a chain
